Experimental data from US20140162945A1 (BEIJING HANMI PHARMACEUTICAL, published 2014).
Where no end group is shown, it is not given here. [ ]: non-standard residue; d: D form. Aib = CC(C)(N)C(=O)O

Experiments:
Assay in all cases: cell-based or functional assay
human GIP receptor [1] = target: T1, human GIP receptor (human, UniProt P48546 22-466)
T1 sequence (looked up): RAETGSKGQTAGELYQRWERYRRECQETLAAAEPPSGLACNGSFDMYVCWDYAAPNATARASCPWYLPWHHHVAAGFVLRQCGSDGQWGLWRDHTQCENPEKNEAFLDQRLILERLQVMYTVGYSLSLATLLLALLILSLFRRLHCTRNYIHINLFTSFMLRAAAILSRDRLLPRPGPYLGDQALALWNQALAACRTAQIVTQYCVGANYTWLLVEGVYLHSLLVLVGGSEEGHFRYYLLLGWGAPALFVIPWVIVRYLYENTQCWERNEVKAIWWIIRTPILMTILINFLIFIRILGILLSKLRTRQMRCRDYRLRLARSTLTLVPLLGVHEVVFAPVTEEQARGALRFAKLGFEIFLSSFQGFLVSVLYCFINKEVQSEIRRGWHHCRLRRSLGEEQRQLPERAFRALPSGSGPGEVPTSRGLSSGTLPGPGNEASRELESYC

human GLP-1 receptor [2] = target: T2, human GLP-1 receptor (human, UniProt P43220 24-463)
human GIP receptor [3] = target: T1, human GIP receptor; remark: listed apart in the source
human GLP-1 receptor [4] = target: T2, human GLP-1 receptor; remark: listed apart in the source

T2 sequence (P43220 24-463): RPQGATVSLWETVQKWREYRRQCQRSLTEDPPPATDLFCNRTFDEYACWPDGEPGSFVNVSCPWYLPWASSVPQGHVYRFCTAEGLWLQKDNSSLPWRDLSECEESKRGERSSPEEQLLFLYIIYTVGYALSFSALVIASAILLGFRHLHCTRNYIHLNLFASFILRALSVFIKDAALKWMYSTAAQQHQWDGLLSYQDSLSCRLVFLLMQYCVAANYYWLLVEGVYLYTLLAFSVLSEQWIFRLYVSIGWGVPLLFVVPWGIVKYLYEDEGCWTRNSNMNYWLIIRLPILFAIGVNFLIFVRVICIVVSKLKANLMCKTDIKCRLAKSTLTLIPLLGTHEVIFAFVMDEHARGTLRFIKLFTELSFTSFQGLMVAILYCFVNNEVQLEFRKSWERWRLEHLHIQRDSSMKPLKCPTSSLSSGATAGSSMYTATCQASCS

B1: Analog 023 (peptide)
peptide: Y[Aib]EGTFTSDYSIYMEKEAVREFIAWLVKG-NH2
modifications: N-terminus assumed
SMILES: CC[C@H](C)[C@H](NC(=O)[C@H](Cc1ccccc1)NC(=O)[C@H](CCC(=O)O)NC(=O)[C@H](CCCNC(=N)N)NC(=O)[C@@H](NC(=O)[C@H](C)NC(=O)[C@H](CCC(=O)O)NC(=O)[C@H](CCCCN)NC(=O)[C@H](CCC(=O)O)NC(=O)[C@H](CCSC)NC(=O)[C@H](Cc1ccc(O)cc1)NC(=O)[C@@H](NC(=O)[C@H](CO)NC(=O)[C@H](Cc1ccc(O)cc1)NC(=O)[C@H](CC(=O)O)NC(=O)[C@H](CO)NC(=O)[C@@H](NC(=O)[C@H](Cc1ccccc1)NC(=O)[C@@H](NC(=O)CNC(=O)[C@H](CCC(=O)O)NC(=O)C(C)(C)NC(=O)[C@@H](N)Cc1ccc(O)cc1)[C@@H](C)O)[C@@H](C)O)[C@@H](C)CC)C(C)C)C(=O)N[C@@H](C)C(=O)N[C@@H](Cc1c[nH]c2ccccc12)C(=O)N[C@@H](CC(C)C)C(=O)N[C@H](C(=O)N[C@@H](CCCCN)C(=O)NCC(N)=O)C(C)C
- EC50, GIP Receptor cAMP induction (human GIP receptor [1]): 0.088 nM
- Relative Potency, GIP Receptor (human GIP receptor [1]): 107%
- EC50, GLP-1 Receptor cAMP induction (human GLP-1 receptor [2]): 1.28 nM
- Relative Potency, GLP-1 Receptor (human GLP-1 receptor [2]): 75%
- EC50, GIPR cAMP induction (human GIP receptor [3]): 0.088 nM
- EC50, GLP-1R cAMP induction (human GLP-1 receptor [4]): 1.28 nM

B2: Analog 025 (peptide)
peptide: Y[Aib]EGTFTSDYSIYMEKQAAKEFIAWLVKG-NH2
modifications: N-terminus assumed
SMILES: CC[C@H](C)[C@H](NC(=O)[C@H](Cc1ccccc1)NC(=O)[C@H](CCC(=O)O)NC(=O)[C@H](CCCCN)NC(=O)[C@H](C)NC(=O)[C@H](C)NC(=O)[C@H](CCC(N)=O)NC(=O)[C@H](CCCCN)NC(=O)[C@H](CCC(=O)O)NC(=O)[C@H](CCSC)NC(=O)[C@H](Cc1ccc(O)cc1)NC(=O)[C@@H](NC(=O)[C@H](CO)NC(=O)[C@H](Cc1ccc(O)cc1)NC(=O)[C@H](CC(=O)O)NC(=O)[C@H](CO)NC(=O)[C@@H](NC(=O)[C@H](Cc1ccccc1)NC(=O)[C@@H](NC(=O)CNC(=O)[C@H](CCC(=O)O)NC(=O)C(C)(C)NC(=O)[C@@H](N)Cc1ccc(O)cc1)[C@@H](C)O)[C@@H](C)O)[C@@H](C)CC)C(=O)N[C@@H](C)C(=O)N[C@@H](Cc1c[nH]c2ccccc12)C(=O)N[C@@H](CC(C)C)C(=O)N[C@H](C(=O)N[C@@H](CCCCN)C(=O)NCC(N)=O)C(C)C
- EC50, GIP Receptor cAMP induction (human GIP receptor [1]): 1.5 nM
- Relative Potency, GIP Receptor (human GIP receptor [1]): 33.3%
- EC50, GLP-1 Receptor cAMP induction (human GLP-1 receptor [2]): 0.837 nM
- Relative Potency, GLP-1 Receptor (human GLP-1 receptor [2]): 131%
- EC50, GIPR cAMP induction (human GIP receptor [3]): 1.5 nM
- EC50, GLP-1R cAMP induction (human GLP-1 receptor [4]): 0.837 nM
